{"source": "the nanobody polyreactivity screen of Harvey et al. (2022)", "data": [{"assay": "yeast display, Sf9 membrane polyspecificity reagent, FACS + sequencing; frameworks hold sequencing errors", "in_short": "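Galactose induction of a Saccharomyces cerevisiae BJ5465 synthetic nanobody display library ran 36–48 hours. The cells were then stained for 1 hour at 4 °C with 10% biotinylated, detergent-solubilized Sf9 membrane reagent, pulled down on streptavidin microbeads and FACS-sorted into low and high (top ~1%) gates on expression and reagent-binding fluorescence. Labels for polyreactivity follow the gate of origin.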", "values": [{"sequence": "QVQLVESGGGLVQAGGSLRLSCAASGFTFRWYDMGWYRQAPGKERELVAAITWRGDNTYYADSVKGRFTISRDNAKNTVYLQMNSLKPEDTAVYYCAAAWPTFISDLSGVDYWGQGTQVTVSS", "polyreactivity (PSR sort gate)": "low polyreactivity"}, {"sequence": "QVQLVESGGGLVQAGGSLRLSCAASGFTFRYNAMGWYRQAPGKERELVAAITNGGSTYADSVKGRFTISRDNAKNTVYLQMNSLKPEDTAVYYCAADYFVLTYYLWSYSPYKSFYYWGQGTQVTLSS", "polyreactivity (PSR sort gate)": "low polyreactivity"}, {"sequence": "QVQLVESGGGLVQAGGSLRLSCAASGFTFRYNAMGWYRQAPGKERELVAAITSDVSTNYADSVKGRFTISRDNAKNTVYLEMNSLKAEDTAVYYCAKGTAKRIVGRSPGNTYEDHYWGQGTEVTVSS", "polyreactivity (PSR sort gate)": "low polyreactivity"}, {"sequence": "QVQLVESGGGLVQAGGSLRLSCAASGFTFRYYAMGWYRQAPGKEREFVAAIRRSGANTYYADSVKGRFTISRDNAKNTVYLQMNSLKPEDTAVYYCGTRLRGSGRLYNYWGQGTQVTVSS", "polyreactivity (PSR sort gate)": "high polyreactivity"}, {"sequence": "QVQLVESGGGLVQAGGSLRLSCAASGFTFRYYAMGWYRQAPGKEREFVAAISWSGGSTYYADSVKGRFTISRDNAKNTVYLQMNSLKPEDTAVYYCNRVPRARKGDYWGQGTQVTVSS", "polyreactivity (PSR sort gate)": "high polyreactivity"}, {"sequence": "QVQLVESGGGLVQAGGSLRLSCAASGFTFRYYAMGWYRQAPGKEREFVAAITRSGGRTYYADSVKGRFTISRDNAKNTVYLQMNSLKPEDTAVYYCAARYVSRFDWGQGTQVTVSS", "polyreactivity (PSR sort gate)": "high polyreactivity"}, {"sequence": "QVQLVESGGGLVQAGGSLRLSCAASGFTFRYYAMGWYRQAPGKERELVAAISWSGASTYYADSVKGRFTISRDNAKNTVYLQMNSLKPEDTAVYYCAADIPGTYYYWGQGTEVTVSS", "polyreactivity (PSR sort gate)": "high polyreactivity"}, {"sequence": "QVQLVESGGGLVQAGGSLRLSCAASGFTFRYYAMGWYRQAPGKERELVAAITRSGGSTSYADSVKGRFTISRDNAKNNVYLQMNSLKPEDTAVYYCNTSTSRVPGNGDYWGQGTQVTVSS", "polyreactivity (PSR sort gate)": "high polyreactivity"}, {"sequence": "QVQLVESGGGLVQAGGSLRLSCAASGFTFRYYAMGWYRQAPGKERELVAAITSGDSTYYADSVKGRFTISRDKAKNTVYLQMNSLKPEDTAVYYCAAYSWLYEGYEYWGQGTQVTVSS", "polyreactivity (PSR sort gate)": "high polyreactivity"}, {"sequence": "QVQLVESGGGLVQAGGSLRLSCAASGFTFRYYAMGWYRQAPGKERELVASISRSGSGTFYADSVKGRFTISRDNAKNTVYLQMNSLKPEDTAVYYCNAVSAAKIPFQKYGYWGQGTQVTVSS", "polyreactivity (PSR sort gate)": "high polyreactivity"}, {"sequence": "QVQLVESGGGLVQAGGSLRLSCAASGFTFRYYAMGWYRQAPGKERELVATISRGGSTNYVDSVKGRFTISRDNAKNTVYLQMNRLKPEDPAVYSCNARYKGWWVSTDSSTDDYWGQGTQVTVSS", "polyreactivity (PSR sort gate)": "high polyreactivity"}, {"sequence": "QVQLVESGGGLVQAGGSLRLSCAASGFTFRYYAMGWYRQAPGKERELVATITTSGGSTYYADSVKGRFTISRDNAKNTVYVQMNSLKPEDTAVYYCAADYYYGRRFRSWRDFNYWGQGTQVTVSS", "polyreactivity (PSR sort gate)": "high polyreactivity"}, {"sequence": "QVQLVESGGGLVQAGGSLRLSCAASGFTFRYYAMGWYSQAPGKERELVAAITRSGGSTYYADSVKGRFTISRDNAKNTVYLQMNSLKPDDTGVYYCAARGHYRDGDEYWGQGTEVTVSS", "polyreactivity (PSR sort gate)": "high polyreactivity"}, {"sequence": "QVQLVESGGGLVQAGGSLRLSCAASGFTFRYYAMVWYRQAPGKERELVAAITSGDSTYYADSVKGLFTISRDNAKNTVYLQMNSLKPEDTAVYYCAAYSWLFEGYEYWGQGTIVTVSS", "polyreactivity (PSR sort gate)": "high polyreactivity"}, {"sequence": "QVQLVESGGGLVQAGGSLRLSCAASGFTFRYYTLGWYRQAPGKERELVAVMRSTGSTNYADSVKGRFTISRDNAKNTVYLQMNSLKAEDTAVYYCNAARGWYNPPKYGSIGFDYWGQGTQVTVSS", "polyreactivity (PSR sort gate)": "high polyreactivity"}, {"sequence": "QVQLVESGGGLVQAGGSLRLSCAASGFTFRYYVMGWSRQAPGKESELVAAICWSGGSTYYADSVKVRFTISRDNAKNTVYLQMNRLKPEDTAFYYCNARRYFRTSQQPLYDYWGQGTQVTVSS", "polyreactivity (PSR sort gate)": "high polyreactivity"}, {"sequence": "QVQLVESGGGLVQAGGSLRLSCAASGFTFSAYAMGWYRQAPGKERELVVAISLSGGSTYYADSVKGRFTISRDNAKNTVYLQMNSLKPEDTAVYYCNADSYWHWGEWLYAPYDYWGQGTQVTVSS", "polyreactivity (PSR sort gate)": "low polyreactivity"}, {"sequence": "QVQLVESGGGLVQAGGSLRLSCAASGFTFSDNAMGWYRQAPGKERELVAASSRSGGRTYYADSVKGRFTISRDNAKNTVYLQMNSLKPEDTAVYYCNARRLSTGFDRYDYWGQGTQVTVSS", "polyreactivity (PSR sort gate)": "high polyreactivity"}, {"sequence": "QVQLVESGGGLVQAGGSLRLSCAASGFTFSDYAMGWYRQAPGKERELVAAISSSGGSTYYADSVKGRFTISRDNAKNTVYLQMNSLKPEDNAVYYCAASSYSFRYRYDTWWYYYWGQGTQVTVSS", "polyreactivity (PSR sort gate)": "high polyreactivity"}, {"sequence": "QVQLVESGGGLVQAGGSLRLSCAASGFTFSFYAMGWYRQAPGKERELVAGISKRGGSTYYADSVKGRFTISRDNAKNTVYLQMNSLKPEDTAVYYCAKRSSLYRSLVDYWGQGTQVTVSS", "polyreactivity (PSR sort gate)": "high polyreactivity"}, {"sequence": "QVQLVESGGGLVQAGGSLRLSCAASGFTFSGYDMGWYRQAPGKERELVAGISSVDHTYYADSVKGRFTISRDNAKNTVYLQMNSLKPEDTAVYYCAATLWPYYYVEYDYWGQGTEVTVSS", "polyreactivity (PSR sort gate)": "low polyreactivity"}, {"sequence": "QVQLVESGGGLVQAGGSLRLSCAASGFTFSHYAMGWYRQAPGKEREVVADISRRGGRTYYADSVKGRFTISRDNAKNTVSLQMNSLKPEDTAVYYCAAPDESYSVWRLDGLDYWGQGTQVTVSS", "polyreactivity (PSR sort gate)": "high polyreactivity"}, {"sequence": "QVQLVESGGGLVQAGGSLRLSCAASGFTFSHYPMGWYRQAPGKERELVASISRRCGTTYYADSVKGRFTISRDNAKNTVYLQMNSLKPEDTAVYYCAVDLYIYYREYDYWGQGTQVTVSS", "polyreactivity (PSR sort gate)": "high polyreactivity"}, {"sequence": "QVQLVESGGGLVQAGGSLRLSCAASGFTFSINAMGWYRKAPGKERELVAGISWSGGITYYADSVKGRFTISRDNAKNTVYLQMNSLKPEDTAVYYCNTDYGLTTPVVWDDYWGQGTQVTVSS", "polyreactivity (PSR sort gate)": "low polyreactivity"}, {"sequence": "QVQLVESGGGLVQAGGSLRLSCAASGFTFSINTMGWYRQAPGKEREFVAGISRSGGSTYYADSVKGRFTISRDNAKNTVYLQMNSLKPEDTAVYYCLKYYQGYDYWGQGTQVTVSS", "polyreactivity (PSR sort gate)": "high polyreactivity"}, {"sequence": "QVQLVESGGGLVQAGGSLRLSCAASGFTFSKNTMGWYRQAPGKERELVAVITRGGGTYYADSVKGRFTISRDNAKNTVYLQMNSLKPEDTAVYYCAVKRNTAYRQAYYLDDYWGQGTQVTVSS", "polyreactivity (PSR sort gate)": "high polyreactivity"}, {"sequence": "QVQLVESGGGLVQAGGSLRLSCAASGFTFSNYAMGWYRQAPGKERELVAAISKRGGSTYYADSVKGRFTISRDNAKNTVYLQRNSLKPEDTAVYYCAAYGGYIRRSVPVWGYYYWGQGTQVTVSS", "polyreactivity (PSR sort gate)": "high polyreactivity"}, {"sequence": "QVQLVESGGGLVQAGGSLRLSCAASGFTFSNYAMGWYRQAPGKERELVAAISRSGGSTYYADSVKGRFTISRDNAKNTVYLQMNSLKPEDTAVYYCNADRYRVWYRRYDYWGQGTQVTVSS", "polyreactivity (PSR sort gate)": "high polyreactivity"}, {"sequence": "QVQLVESGGGLVQAGGSLRLSCAASGFTFSPNAMGWYRQAHGKESELVAAIDWSGDRTYYADSVKGRFTISRDNAKKTVYLQINSLKPEDTAVYYCNVVRRSPGDYTYYYWGQGTQVTVSS", "polyreactivity (PSR sort gate)": "low polyreactivity"}, {"sequence": "QVQLVESGGGLVQAGGSLRLSCAASGFTFSPNARGWYRQAPGKERELVAAISKGGSSTYYADSVKGRFTISRDNAKNTVYLQMNSLKPEDTAVYYCARPSTHKGYDYWGQGTQVTVSS", "polyreactivity (PSR sort gate)": "high polyreactivity"}, {"sequence": "QVQLVESGGGLVQAGGSLRLSCAASGFTFSPYTMGWSRQAPGKERELVATIRYDGTSTYYADSVKGRFTISRDNAKNTVYLQMNSLKREDTAVYYCAAEIWRVYSTFYYWGQGTQVSVSS", "polyreactivity (PSR sort gate)": "low polyreactivity"}, {"sequence": "QVQLVESGGGLVQAGGSLRLSCAASGFTFSQYAMGWYRQAPGKERELVAAISRSGGSTYYADSVKGRFTISRDNAKNTVYLQMNSLKPEDTAVYYCAAQPGRRAGRSGFDYWGQCTQVTVSS", "polyreactivity (PSR sort gate)": "high polyreactivity"}, {"sequence": "QVQLVESGGGLVQAGGSLRLSCAASGFTFSRNAMGWYRQAPGKERELVAAIDSGGSTDYADSVKGRFTISRANAKKTVYLQMNSLKPEDTAVYYCAKASSATRYVQLRQDYDYWGQGTQVTVSS", "polyreactivity (PSR sort gate)": "low polyreactivity"}, {"sequence": "QVQLVESGGGLVQAGGSLRLSCAASGFTFSRNAMGWYRQAPGKERELVAAITWSGGRTYYADSVKGRFTISRDNAKNTVYLQMNSLKPEDTAVYYCAARKYHLRSAYDYWGQGTQVTVSS", "polyreactivity (PSR sort gate)": "low polyreactivity"}, {"sequence": "QVQLVESGGGLVQAGGSLRLSCAASGFTFSRYAMGWYRQAPGKERELVAAISLRGGRTYYADSVKGRFTISRDKTKNSVYLQMNSLKPEDTAVYYCNRDYRGPYYYWGQGSQVTVSS", "polyreactivity (PSR sort gate)": "high polyreactivity"}, {"sequence": "QVQLVESGGGLVQAGGSLRLSCAASGFTFSRYAMGWYRQAPGKERELVAAITSRGGSTYYADSVKGRFTISRDNAKNTVYLQMNSLKPEDTAVYYCAARGWYATWLYYYWGQGTQVTVSS", "polyreactivity (PSR sort gate)": "high polyreactivity"}, {"sequence": "QVQLVESGGGLVQAGGSLRLSCAASGFTFSRYAMVWYRKAPGKDRELVAVISSSGSRTYYADSVKGRFSISRHNAKNTVHLQMNSLQPEDTAVYYGAAKSYTVTAYEYWGQGTQVTVSS", "polyreactivity (PSR sort gate)": "high polyreactivity"}, {"sequence": "QVQLVESGGGLVQAGGSLRLSCAASGFTFSSDAMGWYRQAPGKERELVAAITWRGGTTYYADSVKGRFTISRDNAKNTVYLQMNSLKPEDTAVYYCAVDFKRVIRGSRWGDYWGQGTQVTVSS", "polyreactivity (PSR sort gate)": "high polyreactivity"}, {"sequence": "QVQLVESGGGLVQAGGSLRLSCAASGFTFSSNAMGWYRQAPGKERELVAAISFNSTSTYYADSVKGRFTISRDNAKNTVYIQMNSLKPEDTAVYYCAKESPPAEGDSGYDYWGQGTQVTVSS", "polyreactivity (PSR sort gate)": "low polyreactivity"}, {"sequence": "QVQLVESGGGLVQAGGSLRLSCAASGFTFSSYALGWSRQAPGKERELVAAISTRGGSTYYADSVKGRFTISRDNAKNTVYLQRNSLKPEDTADYYCATGGRGGRRYEYWGQGTQVTVSS", "polyreactivity (PSR sort gate)": "low polyreactivity"}, {"sequence": "QVQLVESGGGLVQAGGSLRLSCAASGFTFSSYAMGWYRQAPGKERELVAAINWSGGSTYYADSVKGRFTISRDNAKNTVYLQMNSLKPEDTAVYYCATSVKDRYWVDYWGQGTQVTVSS", "polyreactivity (PSR sort gate)": "high polyreactivity"}, {"sequence": "QVQLVESGGGLVQAGGSLRLSCAASGFTFSSYAMGWYRQAPGKERELVAAITQSGGRTYYADSVKGRFTISRDNAKNTVYLQMNSLKPEDTAVYSCAADVTLWYDYWGQGTQVTVSS", "polyreactivity (PSR sort gate)": "low polyreactivity"}, {"sequence": "QVQLVESGGGLVQAGGSLRLSCAASGFTFSSYARGWYRQAPGKEREFVAAIRFSGGSTYYADSVKGRFTISRDNAMNTVYLQMNSLKPVDTAVYYCAKRWGIWPRGYYWGQGTQVSVSS", "polyreactivity (PSR sort gate)": "low polyreactivity"}]}]}
